Target: AEBP2 (shorter isoform) (human)
Test: negative-stain EM 3D reconstruction with localisation of MBP and GFP tags; purified PRC2-AEBP2 complex mildly cross-linked with 0.015% glutaraldehyde, stained with 2% uranyl formate; random conical tilt and projection matching, 21 Å; tags located in reference-free 2D class averages

Row | Substance | stoichiometry N
1 | Ezh2 (from UniProt Q15910-2 1-751) (enzyme) | 1
2 | EED (from UniProt O75530 1-441) (natural protein) | 1
